The target of experiment [1] is T1, recombinant cynomolgus monkey PD-L1 soluble protein (biotinylated) (cynomolgus monkey, UniProt G7PSE7 19-238, biotinylated (site not stated); vendor tag not carried in the letters).
T1 construct: Two suppliers are named for the two assays; also called Cyno PD-L1; cynomolgus PD-L1; not shown: vendor tag(s) of the recombinant proteins (Sino Biological; Acrobiosystems #PD1-052H4) and the biotin label
In words: sandwich ELISA: antibody captured on coated anti-human Fc, biotinylated recombinant cynomolgus PD-L1 titrated (x axis, nM), streptavidin-HRP/Amplex red fluorescence. Background: In an ELISA, binding on a coated surface is turned into a signal by an enzyme label.

Experiment [2] has as its target T2, human PD-L1 on cells (human PD-L1-transfected CHO cells; IFNg-induced HT-1080 tumor cells) (human, UniProt Q9NZQ7 19-290).
T2 construct: whole, on cells; CHO transfectants are negative for human CD47; HT-1080 cells also carry CD47; also called hPD-L1-transfected CHO cells; PD-L1+CD47+ HT-1080
In words: inhibition of human PD-1-moFc binding to IFNg-induced PD-L1+CD47+ HT-1080 cells, CellInsight CX5.

Experiment [3] concerns the target T3, recombinant human PD-L1 soluble protein (biotinylated) (human, UniProt Q9NZQ7 19-238, biotinylated).
T3 construct: Bought soluble protein; also called hPD-L1
In words: sandwich ELISA: antibody captured on coated anti-human Fc, biotinylated recombinant human PD-L1 titrated (x axis, nM), streptavidin-HRP/Amplex red fluorescence.

Experiment [4] has as its target T4, recombinant mouse PD-L1 soluble protein (biotinylated) (mouse, UniProt Q9EP73 19-239, limits assumed, biotinylated).
T4 construct: Two sources are named for the two assays
As to the kind of experiment: sandwich ELISA: antibody captured on coated anti-human Fc, biotinylated recombinant mouse PD-L1 titrated, streptavidin-HRP/Amplex red fluorescence.

Experiment [5] concerns the target T5, recombinant human PD-L2 soluble protein (biotinylated) (human, UniProt Q9BQ51 20-220, limits assumed, biotinylated).
T5 construct: Bought soluble protein
T5 sequence (looked up): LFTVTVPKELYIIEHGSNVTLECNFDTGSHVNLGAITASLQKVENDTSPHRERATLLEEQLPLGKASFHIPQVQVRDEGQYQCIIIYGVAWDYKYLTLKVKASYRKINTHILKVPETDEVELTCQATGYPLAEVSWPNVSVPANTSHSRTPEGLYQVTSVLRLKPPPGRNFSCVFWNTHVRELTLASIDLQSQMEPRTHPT
As to the kind of experiment: sandwich ELISA: antibody captured on coated anti-Fc, biotinylated recombinant human PD-L2 titrated, streptavidin-HRP/Amplex red fluorescence.

Experiment [6] has as its target T4, recombinant mouse PD-L1 soluble protein …. In words: sandwich ELISA: antibody captured on coated anti-human Fc, biotinylated recombinant mouse PD-L1 titrated (x axis, nM), streptavidin-HRP/Amplex red fluorescence.
The target of experiment [7] is T3, recombinant human PD-L1 soluble protein …. As to the kind of experiment: BLI (OctetRED96), biotinylated PD-L1 on streptavidin biosensors, bsAb in solution, 1:1 global fit, 30 °C.
Experiment [8] addresses T2, human PD-L1 on cells (human …). As to the kind of experiment: inhibition of human PD-1-moFc binding to human PD-L1-transfected CHO cells, CellInsight CX5.
In experiment [9] the target is T4, recombinant mouse PD-L1 soluble protein …. As to the kind of experiment: BLI (OctetRED96), biotinylated mouse PD-L1 on streptavidin biosensors, bsAb in solution, 1:1 global fit, 30 °C.
Experiment [10] addresses T1, recombinant cynomolgus monkey PD-L1 …. In words: BLI (OctetRED96), biotinylated cynomolgus PD-L1 on streptavidin biosensors, bsAb in solution, 1:1 global fit, 30 °C.
The target in experiment [11] is T6, human CD47 on cells (Raji, Nalm-6, HT-1080 tumor cells, human red blood cells) (human, UniProt Q08722 19-323).
T6 construct: whole, on cells; Raji, Nalm-6 and red blood cells carry no or very little PD-L1; HT-1080 carries both targets; also called IAP
In words: flow cytometry on human red blood cells (CD47+, PD-L1-), detection with AF647 anti-human Fc F(ab')2. A general note: Flow cytometry measures light scatter and fluorescence of single cells or particles in a stream.

T3 sequence (Q9NZQ7 19-238 limits assumed): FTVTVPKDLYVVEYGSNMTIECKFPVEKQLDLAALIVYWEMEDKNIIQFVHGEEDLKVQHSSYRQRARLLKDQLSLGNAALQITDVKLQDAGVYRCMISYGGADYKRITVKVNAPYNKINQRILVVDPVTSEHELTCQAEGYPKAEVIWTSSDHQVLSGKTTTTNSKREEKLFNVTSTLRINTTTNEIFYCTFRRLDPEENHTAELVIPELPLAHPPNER
T1 sequence (G7PSE7 entry or part of it limits assumed): as the sequence (Q9NZQ7 19-238 limits assumed) above, with A33T, A34S, S62N, R68Q, Q82R, F173L, T185A, T192I, H215L counted along it
T2 sequence (Q9NZQ7 19-290): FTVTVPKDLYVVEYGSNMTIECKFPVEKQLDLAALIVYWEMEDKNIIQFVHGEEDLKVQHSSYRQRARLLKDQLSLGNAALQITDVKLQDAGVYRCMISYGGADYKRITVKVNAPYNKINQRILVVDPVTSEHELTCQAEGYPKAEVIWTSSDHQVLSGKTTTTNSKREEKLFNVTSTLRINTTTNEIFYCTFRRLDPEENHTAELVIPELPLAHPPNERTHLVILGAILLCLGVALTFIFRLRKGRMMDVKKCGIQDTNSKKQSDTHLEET
T4 sequence (Q9EP73 19-239 limits assumed): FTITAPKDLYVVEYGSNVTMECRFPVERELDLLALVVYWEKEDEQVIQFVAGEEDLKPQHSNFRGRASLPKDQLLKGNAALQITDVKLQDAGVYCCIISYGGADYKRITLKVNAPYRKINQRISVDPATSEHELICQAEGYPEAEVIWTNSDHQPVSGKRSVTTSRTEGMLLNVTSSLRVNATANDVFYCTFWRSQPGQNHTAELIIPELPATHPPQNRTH

B1: S100 anti-PD-L1 mAb (antibody, human IgG1, lambda, V domains shown)
VH: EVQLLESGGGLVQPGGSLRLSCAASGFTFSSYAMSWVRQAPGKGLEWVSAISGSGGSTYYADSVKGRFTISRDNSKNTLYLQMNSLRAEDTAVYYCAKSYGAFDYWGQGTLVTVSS
VL: QSVLTQPPSASGTPGQRVTISCSGSSSNIENKPVNWYQQLPGTAPKLLIYHDTTRPSGVPDRFSGSKSGTSASLAISGLQSEDEADYYCAAWDFATWPATEVFGGGTKLTVLG
notes: Bivalent monospecific anti-PD-L1 antibody; also called anti-PD-L1 mAb 5100
For orientation: EC50 (read off the curve) means the midpoint of the concentration-response curve. One may read the IC50 as the point on the concentration scale where inhibition reaches its midpoint. As for B1, the “EC50 (read off the curve)” value is about 30 pM in experiment [1] and about 70 pM in experiment [3]. Also, the IC50 in [2] amounted to 0.84 pM. The binding result in experiment [4] was “no binding (tested: about 33 nM PD-L1 protein)”; in experiment [5], “no binding (tested: about 40 nM PD-L2 protein)”.

B2: S79 anti-PD-L1 mAb (antibody, human IgG1, lambda, V domains shown)
VH: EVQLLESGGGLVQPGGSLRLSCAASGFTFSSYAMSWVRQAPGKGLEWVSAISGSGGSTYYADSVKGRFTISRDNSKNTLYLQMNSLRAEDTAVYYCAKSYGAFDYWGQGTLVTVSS
VL: QSALTQPASVSGSPGQSITISCTGTSSDVFRPPLVSWYQQHPGKAPKLMIYFASLRPSGVSNRFSGSKSGNTASLTISGLQAEDEADYYCSSWDHTGDGHVFGGGTKLTVLG
notes: Bivalent monospecific IgG1 anti-PD-L1 antibody; also called S79_Sc3_1G7_VLCL2 aPDL1 IGLV2-23; anti-PD-L1 mAb S79
For the molecule B2, the concentration for a half-maximal effect (EC50 (read off the curve)) was about 30 pM in [1], about 30 pM in experiment [6] and about 70 pM in experiment [3]. In [2], this molecule returned a half-inhibitory concentration (IC50) of 2.52 pM. The binding result in [5] was “no binding (tested: about 40 nM PD-L2 protein)”.

B3: K2×S93 CD47×PD-L1 bispecific antibody (bispecific antibody, human IgG1, kappa, lambda)
heavy: not shown
light 1: not shown
light 2: QSVLTQPPSASGTPGQRVTISCVSTSDHIAHKPVNWYQQLPGTAPKLLIYHDTSRPDGVPDRFSGSKSGTSASLAISGLQSEDEADYYCAAWDFATWPATEVFGGGTKLTVLGQPKAAPSVTLFPPSSEELQANKATLVCLISDFYPGAVTVAWKADSSPVKAGVETTTPSKQSNNKYAASSYLSLTPEQWKSHRSYSCQVTHEGSTVEKTVAPTECS
notes: also called K2xS93; K2×S93 bsAb
What is called Kd is the equilibrium constant for the complex coming apart. With B3, the Kd in experiment [7] was 700 pM.

B4: K2×S96 CD47×PD-L1 bispecific antibody (bispecific antibody, human IgG1, kappa, lambda)
heavy: not shown
light 1: not shown
light 2: QSVLTQPPSASGTPGQRVTISCNLPSADIAHKPVNWYQQLPGTAPKLLIYHDTSVVTGVPDRFSGSKSGTSASLAISGLQSEDEADYYCAAWDFATWPATEVFGGGTKLTVLGQPKAAPSVTLFPPSSEELQANKATLVCLISDFYPGAVTVAWKADSSPVKAGVETTTPSKQSNNKYAASSYLSLTPEQWKSHRSYSCQVTHEGSTVEKTVAPTECS
notes: also called K2xS96; K2×S96 bsAb
In the case of B4, in experiment [7], the equilibrium dissociation constant (Kd) is 800 pM.

B5: K2×S94 CD47×PD-L1 bispecific antibody (bispecific antibody, human IgG1, kappa, lambda)
heavy: not shown
light 1: not shown
light 2: QSVLTQPPSASGTPGQRVTISCISGSVDIAHKPVNWYQQLPGTAPKLLIYHDTSTPDGVPDRFSGSKSGTSASLAISGLQSEDEADYYCAAWDFATWPATEVFGGGTKLTVLGQPKAAPSVTLFPPSSEELQANKATLVCLISDFYPGAVTVAWKADSSPVKAGVETTTPSKQSNNKYAASSYLSLTPEQWKSHRSYSCQVTHEGSTVEKTVAPTECS
notes: also called K2xS94; S94 bsAb
Consider B5, for which the “EC50 (read off the curve)” value is about 30 pM in experiment [1] and about 70 pM in experiment [3]. Also, the Kd in experiment [7] is 700 pM. The molecule also displayed a concentration for half-maximal inhibition (IC50) in [8] of 50 pM. Also, in experiment [4], the binding result is on record as “no binding (tested: about 33 nM PD-L1 protein)”.

B6: K2×S15 CD47×PD-L1 bispecific antibody (bispecific antibody, human IgG1, kappa, lambda)
heavy: not shown
light 1: not shown
light 2: QSALTQPASVSGSPGQSITISCTGTSSDVVKNNFVSWYQQHPGKAPKLMIYFGSVRPSGVSNRFSGSKSGNTASLTISGLQAEDEADYYCSSWDEPDRPFGGGTKLTVLGQPKAAPSVTLFPPSSEELQANKATLVCLISDFYPGAVTVAWKADSSPVKAGVETTTPSKQSNNKYAASSYLSLTPEQWKSHRSYSCQVTHEGSTVEKTVAPTECS
notes: also called K2xS15; K2×S15 bsAb
Consider B6, for which the Kd in experiment [7] is 3000 pM.

B7: K2×S58 CD47×PD-L1 bispecific antibody (bispecific antibody, human IgG1, kappa, lambda)
heavy: not shown
light 1: not shown
light 2: QSALTQPASVSGSPGQSITISCNSPSSDVVKNNFVSWYQQHPGKAPKLMIYFGSVTGPGVSNRFSGSKSGNTASLTISGLQAEDEADYYCSSWDEPDRPFGGGTKLTVLGQPKAAPSVTLFPPSSEELQANKATLVCLISDFYPGAVTVAWKADSSPVKAGVETTTPSKQSNNKYAASSYLSLTPEQWKSHRSYSCQVTHEGSTVEKTVAPTECS
notes: also called K2xS58; K2×S58 bsAb
Take B7: the dissociation constant Kd in [7] was found to be 830 pM.

B8: S46 bsAb (bispecific antibody, human IgG1, kappa, lambda)
common heavy chain: not shown
kappa light chain (anti-CD47 K2): not shown
lambda light chain (anti-PD-L1 S46): QSALTQPASVSGSPGQSITISCTGTSSDVLRPPLVSWYQQHPGKAPKLMIYFASLRPSGVSNRFSGSKSGNTASLTISGLQAEDEADYYCSSWDNAGDGHVFGGGTKLTVLGQPKAAPSVTLFPPSSEELQANKATLVCLISDFYPGAVTVAWKADSSPVKAGVETTTPSKQSNNKYAASSYLSLTPEQWKSHRSYSCQVTHEGSTVEKTVAPTECS
notes: also called K2xS46 CD47xPD-L1 bispecific antibody; K2xS46
Take B8: the figures for the “EC50 (read off the curve)” value in experiment [1], in [6] and in experiment [3] were about 600 pM, about 70 pM and about 100 pM, respectively.

B9: K2×S79 CD47×PD-L1 bispecific antibody (bispecific antibody, human IgG1, kappa, lambda)
heavy: not shown
light 1: not shown
light 2: QSALTQPASVSGSPGQSITISCTGTSSDVFRPPLVSWYQQHPGKAPKLMIYFASLRPSGVSNRFSGSKSGNTASLTISGLQAEDEADYYCSSWDHTGDGHVFGGGTKLTVLGQPKAAPSVTLFPPSSEELQANKATLVCLISDFYPGAVTVAWKADSSPVKAGVETTTPSKQSNNKYAASSYLSLTPEQWKSHRSYSCQVTHEGSTVEKTVAPTECS
notes: also called K2xS79; S79 bsAb
B9: the Kd in experiment [9] came to 520 pM; in [7], 500 pM; in experiment [10] it was 1350 pM. Besides, the concentration for a half-maximal effect (EC50 (read off the curve)) in experiment [1] was about 30 pM; in [6], about 30 pM; in experiment [3], about 70 pM. Moreover, the IC50 in experiment [8] was determined as 30 pM. In addition, the binding result in experiment [5] is reported as “no binding (tested: about 40 nM PD-L2 protein)”.

B10: K2×S23 CD47×PD-L1 bispecific antibody (bispecific antibody, human IgG1, kappa, lambda)
heavy: not shown
light 1: not shown
light 2: QSALTQPASVSGSPGQSITISCTGTSSDVAKIPLVSWYQQHPGKAPKLMIYFASLRPSGVSNRFSGSKSGNTASLTISGLQAEDEADYYCSSWDNAGDGHVFGGGTKLTVLGQPKAAPSVTLFPPSSEELQANKATLVCLISDFYPGAVTVAWKADSSPVKAGVETTTPSKQSNNKYAASSYLSLTPEQWKSHRSYSCQVTHEGSTVEKTVAPTECS
notes: also called K2xS23; K2×S23 bsAb
Consider B10, for which the Kd in experiment [7] came to 920 pM. Also, the binding result in [6] was “binds”; in experiment [11], “binds”; in experiment [5] it was “no binding (tested: about 40 nM PD-L2 protein)”. For the same molecule, the “EC50 (read off the curve)” value in experiment [3] is about 100 pM.

The record behind these values is patent publication US20220315654A1 (NOVIMMUNE, published 2022).
